This is an account of results in the RNAGym collection of RNA variant scans (doi:10.7554/elife.80360).

B1: Twister Ribozyme (parent)
chain: AACACUGCCAAUGCCGGUCCCAAGCCCGGAUAAAAGUGGAGGGGGCGG

In the data set the parent is B1. Kind of data set: self-cleavage, relative activity (ratio to wild type); higher = more cleavage; co-transcriptional.
As for AACACAACCAAUGCCGGUCCCAAGCCCGGAUAAAAGUGGAGGGGGCGG [U6A G7A], the self-cleavage was 0.224.

With AACACUGCCAAUGCCGGUCCCAAGCCCGCAAAAAAGUGGAGGGGGCGG [G29C U31A], the self-cleavage amounted to 1.

With AACACUGCCAAUGCCGGUCCCAAGCCCGGAUAAAUGCGGAGGGGGCGG [A35U U37C], the self-cleavage came to 0.633.

In the case of AACACUGCUAAUGCCGGUCCCAAGCCCGGUUAAAAGUGGAGGGGGCGG [C9U A30U], the self-cleavage was determined as 0.579.

With UACGCUGCCAAUGCCGGUCCCAAGCCCGGAUAAAAGUGGAGGGGGCGG [A1U A4G], the self-cleavage turned out to be 0.0751.

With AACACUGCCAAUGCCGGUCCCAAGACCGGAUAAAAGUGGAGGGCGCGG [C25A G44C], the self-cleavage amounted to 0.111.

As for AACACUGCCAAUGCCGGUCCCAAGCCUGGAUAGAAGUGGAGGGGGCGG [C27U A33G], the self-cleavage was 0.702.

Take AACACUGCCAAUGCCGGUCCCACGCCCGGAUAACAGUGGAGGGGGCGG [A23C A34C]: the self-cleavage stood at 0.161.

Regarding GACACUGCCAAUGCCGGUCCCAAGCCCGGAUGAAAGUGGAGGGGGCGG [A1G A32G], the self-cleavage worked out at 0.507.

In the case of AUCACUGCCAAUGCCGGUCCCAAGCCCGGAUAAAACUGGAGGGGGCGG [A2U G36C], the self-cleavage came out at 0.129.

Regarding AACAUUGCCAAUGCCGGUCCCAAGCCCGGAUAAAAGUGGAGGGGGAGG [C5U C46A], the self-cleavage was determined as 0.764.

AACACUGCCAAUGCCGGUCCCAAGCCCGAAUAAAAGUGGAGGGGGAGG [G29A C46A]: the self-cleavage was found to be 0.922.

AACACUGCCAAUGCCAGUCCCAAGCCCGGAUAAACGUGGAGGGGGCGG [G16A A35C]: the self-cleavage was 0.927.

Regarding AACACUGCGAAUGCCGGUCCCAAGCCCGGAUAAAAGUGGAGGGGGCGU [C9G G48U], the self-cleavage came to 0.377.

With AACACUGCCAAUGCCGGUCCCAAGCCCGGUUAAAAGUGGAGGGGCCGG [A30U G45C], the self-cleavage is 0.661.

Regarding AACACUGCCAAUGCCGGUCUCAAGCCCGCAUAAAAGUGGAGGGGGCGG [C20U G29C], the self-cleavage worked out at 0.305.

Regarding AACACUGCCAAUGCCGGUCCCAAGCCCGUAUAAAACUGGAGGGGGCGG [G29U G36C], the self-cleavage came out at 0.319.

Turning to ACCACUGCCAAUGCCGGUCCCAAGCCCGGAUAAAAGUGUAGGGGGCGG [A2C G39U], the self-cleavage was 0.0688.

As for AACACUGCCAAUACUGGUCCCAAGCCCGGAUAAAAGUGGAGGGGGCGG [G13A C15U], the self-cleavage is 0.579.

As for AACACUGCCAAUGCCGGUCCCAAGCCCGGAUCAAAGUGGAGGGCGCGG [A32C G44C], the self-cleavage is 1.03.

Turning to AACACUGCCAAUGCCGGCCCCGAGCCCGGAUAAAAGUGGAGGGGGCGG [U18C A22G], the self-cleavage worked out at 0.0724.

Take AACACUGCCAAUGCUGGUCCCUAGCCCGGAUAAAAGUGGAGGGGGCGG [C15U A22U]: the self-cleavage is 0.703.

Take AACAUUGCCAAUGCCGGUCCCAAGCCCGGAUAAAAGUGGAUGGGGCGG [C5U G41U]: the self-cleavage is 0.221.

As for AACACUGCCAAUGCCGGUCUCAAGCCCGGAUAAAAGUGGGGGGGGCGG [C20U A40G], the self-cleavage stood at 0.149.

With AACACUGCCAAUGCCGGUACCAAGCCCUGAUAAAAGUGGAGGGGGCGG [C19A G28U], the self-cleavage is 0.179.

As to AACACUGCGAAUGCCGGUCCCAAGCCCGGGUAAAAGUGGAGGGGGCGG [C9G A30G], the self-cleavage came to 0.791.

Turning to AACACUGCCAAUGCCGGUCCCAAGCUCGGAUAAAAGUGGACGGGGCGG [C26U G41C], the self-cleavage came to 0.154.

With AACGCUGCCAAUGCCGGUCCCAAGACCGGAUAAAAGUGGAGGGGGCGG [A4G C25A], the self-cleavage was 0.054.

Take AACACUGCCAAUGCCGGUCCCAAGCACGGACAAAAGUGGAGGGGGCGG [C26A U31C]: the self-cleavage came to 0.7.

Turning to AACACUGCCAAUGCCGGUCCCAAGCUCGGAUAAAAGUGGAGGGGUCGG [C26U G45U], the self-cleavage is 0.145.

As to AACACUGCCAAUGCCGGUCCCAAGCACGGAUAAAAGUGGAGGGCGCGG [C26A G44C], the self-cleavage stood at 0.212.

As for AACACUGCCAAUGCCGGUCCCAAGCCCGGAUAAAAGUGGAGCGGGCGA [G42C G48A], the self-cleavage was 0.516.

Turning to AACACUGCCAAUGCUGGUCCCAAGCCCGGAUUAAAGUGGAGGGGGCGG [C15U A32U], the self-cleavage stood at 0.958.

Consider AACACGGCCAAUGCCGGUCCCAAGCCCGGAUAAAAAUGGAGGGGGCGG [U6G G36A], for which the self-cleavage was found to be 0.0942.

Consider AACACUGCCAUUGCCGGUCCCAAGCCCGGAUAAAAGGGGAGGGGGCGG [A11U U37G], for which the self-cleavage stood at 0.953.

In the case of AACACUGACAAUGCCGGUCCCAAGCCCGAAUAAAAGUGGAGGGGGCGG [C8A G29A], the self-cleavage was found to be 0.327.

On to CACACCGCCAAUGCCGGUCCCAAGCCCGGAUAAAAGUGGAGGGGGCGG [A1C U6C], for which the self-cleavage worked out at 0.147.

On to AACACUACCAAUGCCCGUCCCAAGCCCGGAUAAAAGUGGAGGGGGCGG [G7A G16C], for which the self-cleavage was determined as 0.084.

For the variant UACACUGCCAAUGCCGGUCCCAAGCCCGGAUAAAAGUGCAGGGGGCGG [A1U G39C], the self-cleavage is 0.0764.

AACCCUGCCAAUGGCGGUCCCAAGCCCGGAUAAAAGUGGAGGGGGCGG [A4C C14G]: the self-cleavage was found to be 0.0948.

Take AACACUGCCAAUGCCGGUCCCAAGCCCGGAUAAAAGUAGAGGGAGCGG [G38A G44A]: the self-cleavage was 0.897.

In the case of AACACUGCCAAUGCCGGUGCCAAGCGCGGAUAAAAGUGGAGGGGGCGG [C19G C26G], the self-cleavage is 0.0807.

On to AACACUGCCAAUGCCAGUCCCAAGCCCGGAUAAAAGUGGAGGAGGCGG [G16A G43A], for which the self-cleavage was 0.261.

AACACUGCCAAUGCCGGUCCCAAGCCCGGAUAACAGUGAAGGGGGCGG [A34C G39A]: the self-cleavage came to 0.155.

Consider AACACUGCCGAUGCCGGUCCCAAGCCCGGAAAAAAGUGGAGGGGGCGG [A10G U31A], for which the self-cleavage was 0.696.

On to AACACUGCCAAUGCCGGUCCCAAGCCCGGAAAAGAGUGGAGGGGGCGG [U31A A34G], for which the self-cleavage was determined as 0.853.

With UACACUGCCAAUGCCGGUCCCAAGCCCGGAUAAAAGUGGAGGGGGCGA [A1U G48A], the self-cleavage stood at 0.0713.

On to AACACUGCCAAUGCCGGUCCCAAGCCCGGAUAAAAGAGGAGGGGGCAG [U37A G47A], for which the self-cleavage is 0.457.

Turning to AACACUGCCAAUGCCGGGCCCAAGCCCGCAUAAAAGUGGAGGGGGCGG [U18G G29C], the self-cleavage was 0.0613.

Regarding AACACUGCCAAUGCGGGUCCCAAGCCCGGAAAAAAGUGGAGGGGGCGG [C15G U31A], the self-cleavage came to 0.186.

For the variant AACACUGCCAAUGGCGGGCCCAAGCCCGGAUAAAAGUGGAGGGGGCGG [C14G U18G], the self-cleavage stood at 0.0282.

For AAUACUGCCAAUGCCGGUCCCAAGCCCGGAUAACAGUGGAGGGGGCGG [C3U A34C], the self-cleavage is 0.155.

Regarding AACACUGCCAAUGCCGGGCCCAAGCCCGGAUAAAAGUGGCGGGGGCGG [U18G A40C], the self-cleavage came to 0.0607.

Consider AACACUGCCAAUGCCGGUCCCAAGCCCCGAUAAAAGUGGACGGGGCGG [G28C G41C], for which the self-cleavage came to 0.217.
